T1: full length human TEM1 (endosialin) with a C-terminal V5-His tag, expressed in A431-TEM1 cells / tumor … (human, UniProt Q9HCU0 18-757)
T1 construct: Target in tissue sections of A431-TEM1 tumor xenografts; also called hTEM1; endosialin/TEM1
T1 sequence: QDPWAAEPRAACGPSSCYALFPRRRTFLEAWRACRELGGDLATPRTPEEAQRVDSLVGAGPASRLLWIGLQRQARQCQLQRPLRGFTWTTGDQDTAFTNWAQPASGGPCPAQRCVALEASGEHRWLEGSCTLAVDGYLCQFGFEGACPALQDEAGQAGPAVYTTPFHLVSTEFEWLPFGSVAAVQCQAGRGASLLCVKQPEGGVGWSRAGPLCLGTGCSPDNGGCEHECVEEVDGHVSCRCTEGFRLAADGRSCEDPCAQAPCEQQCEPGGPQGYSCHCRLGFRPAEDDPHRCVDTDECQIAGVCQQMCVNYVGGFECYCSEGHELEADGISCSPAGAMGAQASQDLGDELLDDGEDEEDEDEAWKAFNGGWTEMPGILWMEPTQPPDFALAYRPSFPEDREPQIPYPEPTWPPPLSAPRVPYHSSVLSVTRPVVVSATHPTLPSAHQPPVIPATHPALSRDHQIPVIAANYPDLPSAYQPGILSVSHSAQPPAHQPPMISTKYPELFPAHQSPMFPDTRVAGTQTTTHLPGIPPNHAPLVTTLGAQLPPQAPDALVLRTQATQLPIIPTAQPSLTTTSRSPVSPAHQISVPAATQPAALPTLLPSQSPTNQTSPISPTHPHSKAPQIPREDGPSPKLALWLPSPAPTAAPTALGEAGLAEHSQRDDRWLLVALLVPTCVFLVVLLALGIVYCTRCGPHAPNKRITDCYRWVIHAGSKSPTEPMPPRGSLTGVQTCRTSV

T2: mouse TEM1 extracellular domain (ECD)-Fc fusion protein (mouse, UniProt Q91V98 18-695)
T2 construct: also called mouse TEM1-Fc
T2 sequence: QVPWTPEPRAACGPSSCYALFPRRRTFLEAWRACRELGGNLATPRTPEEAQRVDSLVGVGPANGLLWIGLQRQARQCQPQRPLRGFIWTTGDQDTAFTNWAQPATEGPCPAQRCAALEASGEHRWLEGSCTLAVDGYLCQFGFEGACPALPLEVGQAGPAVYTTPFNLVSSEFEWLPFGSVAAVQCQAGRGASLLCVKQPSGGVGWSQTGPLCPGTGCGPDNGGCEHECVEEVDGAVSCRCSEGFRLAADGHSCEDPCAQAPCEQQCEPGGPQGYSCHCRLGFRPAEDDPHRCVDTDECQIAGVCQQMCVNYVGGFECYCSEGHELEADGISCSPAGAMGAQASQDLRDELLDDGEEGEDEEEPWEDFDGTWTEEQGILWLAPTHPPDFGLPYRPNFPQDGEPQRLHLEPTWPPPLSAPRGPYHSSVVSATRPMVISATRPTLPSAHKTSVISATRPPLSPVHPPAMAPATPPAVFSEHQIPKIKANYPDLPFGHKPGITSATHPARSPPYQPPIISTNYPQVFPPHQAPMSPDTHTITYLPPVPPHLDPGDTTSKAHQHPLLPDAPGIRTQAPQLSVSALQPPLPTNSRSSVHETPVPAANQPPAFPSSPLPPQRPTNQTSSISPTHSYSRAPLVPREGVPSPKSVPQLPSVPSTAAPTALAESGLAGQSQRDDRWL


How the values were obtained:
[1] = target: soluble human endosialin extracellular domain-mouse Fc fusion protein (human; mouse); assay: competition ELISA: hTEM1-Fc (15 µg/mL) preincubated with serial dilutions of antibody, binding to fibronectin-coated plate detected with anti-mouse HRP
[2] = target: T1, full length human TEM1 (endosialin) …; assay: IHC on FFPE A431-TEM1 tumor xenograft sections, biotinylated antibody at 20 µg/ml
[3] = target: T2, mouse TEM1 extracellular domain …; assay: hybridoma screening ELISA on TEM1-Fc protein, Fc-reactive clones removed by counterscreen
Description: To generate rabbit anti-mouse endosialin (TEM1) antibody clone 8, we immunized two New Zealand white rabbits with four injections of mouse TEM1 extracellular domain (ECD)-Fc fusion protein. Antiserum titer was monitored using standard ELISA (TEM1) and counterscreen ELISA for Fc reactivity. A final IV boost was performed within 4-8 weeks of the last regular injection boost. Splenectomies were performed after the final IV boost. Lymphocytes were isolated from each rabbit spleen. Fusions with 240E-W3 cells (Epitomics) were performed in forty 96-well plates. Standard ELISA screening for 40 plates was performed using TEM1-Fc protein. All positive hybridomas were expanded to 24-well plates and confirmatory standard and differential ELISA were performed. Fc reactive clones were counterscreened and removed, leaving the TEM1-reactive clones. Positive hybridomas were expanded for Ig gene sequencing and generation of purified Ab. One positive hybridoma was assigned the designation clone 8.

IC50 [1] [µg/mL]	binding result [2]	binding result [3]	Binder
41.5			rabbit anti-human endosialin monoclonal antibody 1-25-2 (antibody, V domains shown) VH: AQSLEESGGDLVKPEGSLTLTCTASGFSFSSSYWGCWVRQAPGKGPEWIACIYGGSSGTTYYPNWAKGRFSISKTSSTTVTLQMASLTAADTATYFCARVTNGGDWDFKLWGPGTLVTISS VL: ELVLTQTPASVEVAVGGTVTIKCQASQTINNYLTWYQQKPGQPPKLLIYRASTLASGVPSRFKGSGSGTEFTLTISDLECADAATYYCQQTVRVVDVDNSFGGGTEVVVK
21.4			rabbit anti-human endosialin monoclonal antibody 1-3-1 (antibody, V domains shown) VH: AQSVEESGGDLVRPGASLTLTCSASGFTINRNYWICWVRQAPGRGPEWIACIYGGSSGTTYYTNWAKGRFTISKAASTTVTLQMTSLTVADTATYFCARVDNGGDWYFRLWGPGTLVTISS VL: ELDLTQTPASVEVAVGGTVTIKCQASQSISSYLAWYQQKPGQPPKLLIYRASTLASGVSSRFKGSGSGTEFTLTISGVQCDDAATYYCQQGVRVVDIDNSFGGGTELVVK

Second part, the binder before the results:

Binder	IC50 [1] [µg/mL]	binding result [2]	binding result [3]
rabbit anti-human endosialin monoclonal antibody 1-55-2 (antibody, V domains shown, Rabbit IgG from a hybridoma, kappa light chain; rabbit constant regions are not; also called hybridoma 1-55-2 (ATCC PTA-9652)) VH: QQQLMESGGDLVKPEGSLTLTCTASGFSFSSSYWGCWVRQAPGKGPEWIACIYGGSSGTTYYPNWAKGRFSISKTSSTTVTLQMASLTAADTATYFCARVTNGGDWDFKLWGPGTLVTVSS VL: ELVMTQTPASVEVAVGGTVTIKCQASQSINTYLAWYQQKPGQPPKLLIYRASTLASGVPSRFKGSGSGTEFTLTISDLECADAATYYCQQSVRVIDVDNTFGGGTEVVVK	69.5	binds	
rabbit anti-mouse endosialin monoclonal antibody clone 8 (antibody, V domains shown, Rabbit IgG from a hybridoma, kappa light chain; rabbit constant regions are not; also called hybridoma clone 8 (ATCC PTA-9651)) VH: AQSVEESGGGLVKPEGSLTLSCKASGFSFSNNSYICWVRQAPGKGLEWIACIEFGRGNSHYASWAKGRFTITRSTSLNTVTLQLNSLTAADTATYFCARGSRGVGYGYGLWGPGTLVTISS VL: ELDMTQTPSPVSAAVGGTVTINCQASQSVYSNSRLSWYQQKPGQPPKQLIYSASTLASGVPSRFKGSGSGTHFTLTLSGVQCDDAATYYCQGEFACSSADCSAFGGGTELEILK			binds
